Here are results for 2 sequences from patent US20140072613A1, “Compositions and Methods for Treating Cutaneous Scarring” (priority 2012, published 2014).

What all share (test): biochemical
Holding throughout (format): biochemical

For assay [1], the target named is 266 human kinases (Homo sapiens, UniProt Q13554). Particulars: CaMKIIβ(h); 100 μM. The essentials:
(§1)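 Inhibition was judged from reduced transfer of labelled phosphate from ATP to a positively charged substrate, which was captured on a negatively charged membrane and quantified by scintillation counting against a 100% activity control.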

For assay [2], the target named is 266 human kinases (Homo sapiens, UniProt P08581, D1228H). Particulars: Met(D1246H)(h); 100 μM. In outline:
as §1

Assay [3] has as its target 266 human kinases (Homo sapiens, UniProt Q9Y6E0). The note with it: MST3(h); 100 μM. The essentials: as §1
The target of assay [4] is 266 human kinases (Homo sapiens, UniProt P42345). The note with it: 100 μM. The essentials: as §1
For assay [5], the target named is 266 human kinases (Homo sapiens, UniProt Q9UPE1). The note with it: MSSK1(h); 100 μM. In outline:
as §1

Assay [6] deals with 266 human kinases (Homo sapiens, UniProt P17612). Particulars: PKA(h); 100 μM. The essentials:
as §1

For assay [7], the target named is T1, 266 human kinases (Homo sapiens, UniProt Q8TDC3).
T1 sequence (Q8TDC3 1-778): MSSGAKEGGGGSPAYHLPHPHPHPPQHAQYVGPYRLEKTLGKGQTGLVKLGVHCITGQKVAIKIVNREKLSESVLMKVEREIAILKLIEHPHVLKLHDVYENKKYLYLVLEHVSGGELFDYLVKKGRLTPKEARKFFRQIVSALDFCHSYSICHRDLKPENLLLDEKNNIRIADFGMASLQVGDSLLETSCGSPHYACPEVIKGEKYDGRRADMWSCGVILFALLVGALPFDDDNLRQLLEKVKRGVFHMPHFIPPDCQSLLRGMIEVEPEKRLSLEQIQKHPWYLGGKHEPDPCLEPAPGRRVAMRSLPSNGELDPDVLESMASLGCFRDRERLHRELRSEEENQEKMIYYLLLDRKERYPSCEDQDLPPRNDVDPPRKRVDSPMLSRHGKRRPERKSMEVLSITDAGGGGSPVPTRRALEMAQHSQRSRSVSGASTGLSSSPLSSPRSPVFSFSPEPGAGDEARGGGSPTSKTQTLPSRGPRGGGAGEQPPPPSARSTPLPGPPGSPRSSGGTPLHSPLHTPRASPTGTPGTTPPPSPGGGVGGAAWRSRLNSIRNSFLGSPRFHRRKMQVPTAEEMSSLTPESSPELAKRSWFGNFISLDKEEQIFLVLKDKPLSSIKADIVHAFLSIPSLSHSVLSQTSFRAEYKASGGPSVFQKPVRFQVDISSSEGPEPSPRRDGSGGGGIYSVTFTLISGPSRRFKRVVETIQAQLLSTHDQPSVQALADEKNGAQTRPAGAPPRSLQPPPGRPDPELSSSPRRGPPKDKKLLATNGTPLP
The note with it: BrSK1(h); 100 μM. In outline: as §1

Assay [8] has as its target 266 human kinases (Homo sapiens, UniProt P51812). The note with it: Rsk2(h); 100 μM. In outline:
as §1

In assay [9] the target is 266 human kinases (Homo sapiens, UniProt P22455). The note with it: FGFR4(h); 100 μM. The essentials:
as §1

The target in assay [10] is 266 human kinases (Homo sapiens, UniProt P43405). Particulars: Syk(h); 100 μM. In outline: as §1
Assay [11] has as its target 266 human kinases (Homo sapiens, UniProt Q9BYT3). The note with it: STK33(h); 100 μM. In outline: as §1
Assay [12] deals with 266 human kinases (Homo sapiens, UniProt P31749). The note with it: PKBα(h); 100 μM. In outline:
as §1

Assay [13] concerns the target T2, 266 human kinases (Homo sapiens, UniProt Q12851).
T2 sequence (Q12851 1-820): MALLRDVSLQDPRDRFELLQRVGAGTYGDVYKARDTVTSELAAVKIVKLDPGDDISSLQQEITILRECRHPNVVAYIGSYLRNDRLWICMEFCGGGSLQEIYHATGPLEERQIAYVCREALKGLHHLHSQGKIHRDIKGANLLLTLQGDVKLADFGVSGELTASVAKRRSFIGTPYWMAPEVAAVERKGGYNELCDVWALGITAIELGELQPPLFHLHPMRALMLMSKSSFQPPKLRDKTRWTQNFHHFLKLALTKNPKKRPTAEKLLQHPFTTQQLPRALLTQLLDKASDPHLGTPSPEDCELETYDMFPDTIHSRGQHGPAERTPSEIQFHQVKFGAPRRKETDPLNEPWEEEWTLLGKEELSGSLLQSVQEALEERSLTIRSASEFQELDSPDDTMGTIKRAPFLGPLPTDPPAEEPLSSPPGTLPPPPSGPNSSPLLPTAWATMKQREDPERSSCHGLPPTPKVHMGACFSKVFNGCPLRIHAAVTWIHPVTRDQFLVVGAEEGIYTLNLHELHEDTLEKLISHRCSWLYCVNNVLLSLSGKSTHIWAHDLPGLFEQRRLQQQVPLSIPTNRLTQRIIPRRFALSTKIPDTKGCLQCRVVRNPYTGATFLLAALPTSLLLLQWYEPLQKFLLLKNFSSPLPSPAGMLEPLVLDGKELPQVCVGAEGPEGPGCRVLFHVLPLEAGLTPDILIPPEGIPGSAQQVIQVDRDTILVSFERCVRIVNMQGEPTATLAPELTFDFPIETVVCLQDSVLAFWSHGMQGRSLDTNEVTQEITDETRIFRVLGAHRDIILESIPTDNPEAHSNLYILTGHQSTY
The note with it: GCK(h); 100 μM. In outline: as §1

Chain of 266 human kinases (Homo sapiens, UniProt P31749) (P31749 whole entry): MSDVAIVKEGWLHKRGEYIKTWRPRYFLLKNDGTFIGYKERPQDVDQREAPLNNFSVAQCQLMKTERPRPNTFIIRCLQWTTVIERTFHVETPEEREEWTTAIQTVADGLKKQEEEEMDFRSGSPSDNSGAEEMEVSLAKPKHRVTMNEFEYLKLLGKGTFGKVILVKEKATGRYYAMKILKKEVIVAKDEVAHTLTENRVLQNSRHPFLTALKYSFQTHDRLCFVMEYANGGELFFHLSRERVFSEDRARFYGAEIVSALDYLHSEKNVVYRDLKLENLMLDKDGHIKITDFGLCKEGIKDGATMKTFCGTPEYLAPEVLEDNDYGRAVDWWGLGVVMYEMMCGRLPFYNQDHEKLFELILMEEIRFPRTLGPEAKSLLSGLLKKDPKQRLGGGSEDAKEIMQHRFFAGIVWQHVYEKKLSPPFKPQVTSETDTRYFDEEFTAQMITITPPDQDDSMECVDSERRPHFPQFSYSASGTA
Chain of 266 human kinases (Homo sapiens, UniProt Q9Y6E0) (Q9Y6E0 whole entry): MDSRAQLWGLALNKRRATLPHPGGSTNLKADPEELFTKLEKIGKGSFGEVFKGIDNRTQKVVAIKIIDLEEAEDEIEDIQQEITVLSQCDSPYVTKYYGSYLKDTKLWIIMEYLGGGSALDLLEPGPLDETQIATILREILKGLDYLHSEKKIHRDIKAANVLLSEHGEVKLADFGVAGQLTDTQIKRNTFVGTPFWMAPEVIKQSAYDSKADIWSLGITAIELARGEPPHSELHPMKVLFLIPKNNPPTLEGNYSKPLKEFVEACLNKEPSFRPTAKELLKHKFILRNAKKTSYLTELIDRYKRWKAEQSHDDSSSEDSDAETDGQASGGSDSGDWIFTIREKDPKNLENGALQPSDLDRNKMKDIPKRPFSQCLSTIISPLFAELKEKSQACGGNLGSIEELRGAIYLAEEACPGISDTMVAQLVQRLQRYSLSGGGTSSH
Chain of 266 human kinases (Homo sapiens, UniProt Q9BYT3) (Q9BYT3 whole entry): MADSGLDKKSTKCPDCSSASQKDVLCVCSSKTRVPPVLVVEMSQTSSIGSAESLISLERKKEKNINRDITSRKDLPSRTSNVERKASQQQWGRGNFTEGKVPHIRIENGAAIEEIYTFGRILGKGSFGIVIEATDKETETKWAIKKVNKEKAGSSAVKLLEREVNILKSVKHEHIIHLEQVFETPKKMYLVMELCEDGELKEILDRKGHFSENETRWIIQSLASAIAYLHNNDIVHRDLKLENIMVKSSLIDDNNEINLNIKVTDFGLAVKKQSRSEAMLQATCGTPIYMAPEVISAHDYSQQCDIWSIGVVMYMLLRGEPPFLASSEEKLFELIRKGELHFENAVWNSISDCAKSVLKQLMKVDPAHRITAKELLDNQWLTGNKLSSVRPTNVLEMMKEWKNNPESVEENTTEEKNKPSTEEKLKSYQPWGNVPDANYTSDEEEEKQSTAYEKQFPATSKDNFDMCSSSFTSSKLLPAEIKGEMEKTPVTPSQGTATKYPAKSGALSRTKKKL
Chain of 266 human kinases (Homo sapiens, UniProt P51812) (P51812 whole entry): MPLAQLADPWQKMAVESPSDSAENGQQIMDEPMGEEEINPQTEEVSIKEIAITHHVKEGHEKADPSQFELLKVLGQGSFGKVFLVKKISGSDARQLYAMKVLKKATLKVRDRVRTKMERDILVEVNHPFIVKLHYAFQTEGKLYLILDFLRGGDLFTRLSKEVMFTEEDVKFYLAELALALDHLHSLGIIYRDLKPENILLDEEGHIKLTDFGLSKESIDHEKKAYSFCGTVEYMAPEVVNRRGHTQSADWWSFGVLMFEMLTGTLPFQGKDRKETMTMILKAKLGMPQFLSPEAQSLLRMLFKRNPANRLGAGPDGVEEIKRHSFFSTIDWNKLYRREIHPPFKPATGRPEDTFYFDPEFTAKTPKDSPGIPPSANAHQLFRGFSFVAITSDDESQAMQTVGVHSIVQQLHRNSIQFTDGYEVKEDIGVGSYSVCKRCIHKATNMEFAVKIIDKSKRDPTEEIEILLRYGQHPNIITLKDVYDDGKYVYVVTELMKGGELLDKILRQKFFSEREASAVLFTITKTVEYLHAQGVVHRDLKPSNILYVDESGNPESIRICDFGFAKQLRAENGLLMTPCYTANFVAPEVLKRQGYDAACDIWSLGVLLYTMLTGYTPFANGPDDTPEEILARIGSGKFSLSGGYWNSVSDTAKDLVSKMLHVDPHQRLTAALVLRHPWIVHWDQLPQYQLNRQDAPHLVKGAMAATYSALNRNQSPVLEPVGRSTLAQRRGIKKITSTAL
Chain of 266 human kinases (Homo sapiens, UniProt Q9UPE1) (Q9UPE1 whole entry): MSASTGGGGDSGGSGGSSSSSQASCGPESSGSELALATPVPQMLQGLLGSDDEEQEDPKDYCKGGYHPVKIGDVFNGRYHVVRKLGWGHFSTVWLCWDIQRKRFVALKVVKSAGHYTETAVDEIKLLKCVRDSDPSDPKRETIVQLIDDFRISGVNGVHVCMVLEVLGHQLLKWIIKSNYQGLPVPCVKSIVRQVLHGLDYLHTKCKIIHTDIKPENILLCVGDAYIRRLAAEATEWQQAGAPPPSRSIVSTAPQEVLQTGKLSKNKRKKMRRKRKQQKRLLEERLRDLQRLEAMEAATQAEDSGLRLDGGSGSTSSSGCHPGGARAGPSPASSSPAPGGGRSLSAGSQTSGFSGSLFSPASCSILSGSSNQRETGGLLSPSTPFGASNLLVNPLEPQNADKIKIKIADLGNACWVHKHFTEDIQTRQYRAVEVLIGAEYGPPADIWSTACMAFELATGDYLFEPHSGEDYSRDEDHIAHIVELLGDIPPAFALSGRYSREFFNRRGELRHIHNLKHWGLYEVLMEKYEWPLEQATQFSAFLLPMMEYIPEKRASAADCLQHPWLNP
Chain of 266 human kinases (Homo sapiens, UniProt Q13554) (Q13554 whole entry): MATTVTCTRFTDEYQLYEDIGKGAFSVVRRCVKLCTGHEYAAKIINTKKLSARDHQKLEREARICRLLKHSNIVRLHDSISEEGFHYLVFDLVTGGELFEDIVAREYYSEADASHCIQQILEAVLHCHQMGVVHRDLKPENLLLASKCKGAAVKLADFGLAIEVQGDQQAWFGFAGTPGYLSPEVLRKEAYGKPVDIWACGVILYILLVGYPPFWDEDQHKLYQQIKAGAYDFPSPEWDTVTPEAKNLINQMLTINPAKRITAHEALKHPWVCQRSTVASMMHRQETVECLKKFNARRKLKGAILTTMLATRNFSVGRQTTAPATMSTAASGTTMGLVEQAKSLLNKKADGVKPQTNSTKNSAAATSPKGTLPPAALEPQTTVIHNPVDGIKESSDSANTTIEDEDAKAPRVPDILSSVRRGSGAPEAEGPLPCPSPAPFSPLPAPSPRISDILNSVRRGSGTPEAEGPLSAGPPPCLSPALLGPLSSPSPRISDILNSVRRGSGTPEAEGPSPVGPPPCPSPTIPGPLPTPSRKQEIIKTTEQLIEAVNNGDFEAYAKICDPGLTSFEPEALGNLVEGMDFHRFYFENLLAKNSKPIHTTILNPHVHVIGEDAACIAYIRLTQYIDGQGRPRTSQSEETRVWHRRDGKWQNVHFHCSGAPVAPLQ

Take “HRRIKAWLKKIKALARQLGVAA (mammal) [MMI-0500]”: the “% activity” value in assay [1] amounted to 3%; in assay [2], 150%; in assay [3], 4%; in assay [4] (mTOR(h)), 135%; in assay [4] (mTOR/FKBP12(h)) it was 140%; in assay [5], 22%. Further, the “% activity” value came out at 118% in assay [6]; 72% in assay [7]; 14% in assay [8]; 3% in [9]; 5% in [10]; 16% in [11]. Besides, the “% activity” value in assay [12] and in [13] was 30% throughout.

With “YARAAARQARAKALNRQLGVA (mammal) [MMI-0200]”, the “% activity” value in assay [1] is recorded as 53%; in [2] it was 139%; in assay [3], 95%; in assay [4] (mTOR(h)) it was 110%; in [4] (mTOR/FKBP12(h)) it was 118%; in [5] it was 100%. Moreover, the “% activity” value stood at 110% in assay [6]; 93% in assay [7]; 101% in [8]; 75% in assay [9]; 36% in [10]; 98% in [11]. Moreover, the “% activity” value in [12] is reported as 110%; in assay [13], 99%.
